Here are results for 140 substances from the supplement of paper PMC12042874.

A short description of this data set: amyloid nucleation score (Sup35N fusion, yeast selection) (log enrichment); library NNK2; higher = more nucleation; inactive = no reads after selection. Put shortly:
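Three technical output replicates were used for random libraries. Psi-negative yeast expressing peptides of 20 random codons fused to Sup35N were induced with 100 μM copper sulfate for 24 hours and grown 7 days at 30°C on medium lacking adenine and uracil, and input and output plasmid inserts were Illumina-sequenced, excluding sequences with under 100 input reads. The nucleation score is the DiMSum log enrichment of output over input reads, centred on the mode score of non-aggregating sequences.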

± gives the uncertainty stated by the source.

Substance ILVWLGQTEEASVDRRAQHT showed an amyloid nucleation score of 0.43 ± 0.32.
The result for RAWETNFRVTTLDCNNYSSS reads “inactive”; that for SCLLYCYSNSWFFIFNQR, -0.979 ± 1; that for WYCSHFISFHLESKF, 4.76 ± 0.11.
The result for ASITYNACLKPLQM reads 0.313 ± 0.64.
The value for VNTNPMVAVPGMYIYYRWFL was “inactive”; that for MVCKLTFRRRCPMNRSRHQV was 0.469 ± 0.43; that for FECVAFSAV was -0.272 ± 0.28.
WTHDVWSGSYEWARDGLDVK yielded an amyloid nucleation score of -0.163 ± 0.79.
The value for VLGWCCLVLSILLKCEKVGL was -0.095 ± 1.1; that for SQVQSFIFSPGLNNSKAEFT was -0.078 ± 0.8; that for VYPDSIVGFEADVNGCVVVP was 0.713 ± 0.38.
In turn, RRTICCCSIVCGRGNGSLDL gave an amyloid nucleation score of 6.257 ± 0.056.
In turn, IVGVTYFCGSNRIIMMNGVL registered an amyloid nucleation score of 5.956 ± 0.052.
The result for FAFVYSNHFGQMCYRNVCLS reads “inactive”; that for YFVPKLYRVSFKLYKWCFKW, 0.277 ± 0.64; that for VWWSEVTAVSNCQRVSYARP, 2.94 ± 0.075.
WLLNYYRGGVWLGLWTRKE: the amyloid nucleation score was -1.3 ± 0.48.
The value for CVFVPIKLGGDGLTVYLKCI was -0.996 ± 0.45.
The value for NWPETT was 2.48 ± 0.19; that for SEFGSNEYRDGLGVYYGST was -0.542 ± 0.33; that for YTSSRGHYSIMGVIRMCDRL was 0.118 ± 0.25.
The result for IYSHESASWWMRRARSS reads 1.55 ± 0.25.
LYDWRWSWSRSATSSFGWLT had an amyloid nucleation score of 0.296 ± 0.49.
The value for DINSQEVCSVTELGR was -0.247 ± 0.45.
The result for GVPALGFGLAGLTVACFAEE reads -0.097 ± 0.34; that for FIWTYSYRDVWVLRVAVWLQ, 0.283 ± 0.23.
The value for IMLKGDWC was -0.189 ± 0.47; that for TCFEEFLQKFMYCATFMKKM was -0.403 ± 0.78.
EYLTNVMVRGDYFGWDHAIA registered an amyloid nucleation score of -0.949 ± 0.63.
AILNAVGCNWGTRCDGLSVQ: the amyloid nucleation score was -0.213 ± 0.48.
The result for ICRGPQSSNCMEAFVQHFTK reads 0.417 ± 0.42; that for SANSRVGGLGNL, 0.717 ± 0.39; that for FPKIQSKFSRDIFSDGNEYE, “inactive”.
The value for TWYPIAFKTGCEMLTERSM was 6.435 ± 0.035; that for GFDYLIFLNKHRLVMSWSFE was -0.675 ± 1.1.
As for HAMPVYRAEFTLISTIL, the amyloid nucleation score is 0.268 ± 0.32.
The value for FYRHCFVVTNKRAPSKSRSK was 4.61 ± 0.11; that for LNIHLFSVTGLCDEC was -0.344 ± 0.76.
In the case of CLFWLHQHMQYFHVMGLSPT, the amyloid nucleation score came out at 2.21 ± 0.22.
The result for MQAMRRGQKYKSGRVIYVRG reads -0.554 ± 0.63; that for AVVGDMGIC, -0.511 ± 0.63; that for SSKTGWSHGIMVQPK, “inactive”.
The value for IRSLFLVDYNRMIGMPKGMY was 1.55 ± 0.2.
The result for FMDIHRKMGTHVFLRKCFRI reads -0.771 ± 1.1; that for SECCLVELINLTDGGMRGSA, 0.5 ± 0.42.
MLYVVCFCILVFLFHTNRMR: the amyloid nucleation score was -0.674 ± 0.32.
The value for RLCGV was -1.17 ± 0.55.
Consider YVTFMKGIGLSVFSADIQ, for which the amyloid nucleation score came to 1.83 ± 0.2.
PWWLWVGSMYENYGFAPFWV yielded an amyloid nucleation score of -0.969 ± 0.3.
As for LVFHRVTWLTDNMQWKGTPG, the amyloid nucleation score was 3.2 ± 0.078.
Turning to YFNFDL, the amyloid nucleation score was -0.313 ± 0.76.
The result for WGLSRNSNIGHRVLIVAGNL reads -0.683 ± 0.35.
The result for YNGTTLMMGDIGSCSFI reads -0.787 ± 0.38; that for KQMFRQFLCGNVYNWRYMRA, 0.298 ± 0.56.
The result for FKQYFSYLVGLYRS reads 0.472 ± 0.8; that for NTVWSFSSEWLFKQQLVCVR, 0.091 ± 0.53; that for NDSNYKPANSYRSPSGNRMV, “inactive”.
In the case of IRKGSHGSKMIEPVAMRSAC, the amyloid nucleation score worked out at 4.88 ± 0.083.
The result for PSTYWRMILKFRVCEIVHGT reads 0.231 ± 0.21; that for KVMGYGYA, -1.02 ± 0.55.
The result for IMGKLHTADYIIVLRLIDRS reads -0.349 ± 0.41.
The value for NTGVIYDAT was -0.307 ± 0.63.
In turn, VRCLVRYYAVR registered an amyloid nucleation score of -0.649 ± 0.79.
The result for MCCGISMVFGDCSQVSVLIR reads 8.847 ± 0.047; that for CVTQSR, -0.086 ± 0.26.
The value for SVLHPLTSKWNGKKWV was “inactive”; that for ASFMPLFGGLGFLQKNEITM was 3.7 ± 0.077; that for KLKRHL was -0.3 ± 0.24.
For RLSLQTVRLPLLYIWDEDSW, the amyloid nucleation score was found to be 3.43 ± 0.15.
FLQNWKLYRCCLRVASVGGR displayed an amyloid nucleation score of 4.67 ± 0.11.
The result for WTCAAFFEMDDRQGIVEIFI reads 0.644 ± 0.81; that for MLPFNRSVPNAAFFIGMIGS, 2.16 ± 0.076; that for RRLFYRRRQHNILLAYWVWY, 0.524 ± 0.81.
Consider IANYSFELFII, for which the amyloid nucleation score turned out to be 2.87 ± 0.1.
Regarding RLWTCLEVLKFSGGLIASMY, the amyloid nucleation score was -1.05 ± 0.44.
On to RLSAHPVAAVLWG, for which the amyloid nucleation score was found to be 1.49 ± 0.36.
Regarding AFELSVTLCSTEMLQHRCIG, the amyloid nucleation score is -0.081 ± 1.1.
The result for NILIRASGVRA reads “inactive”; that for VSVKRGAPKVGSTGPVYTCG, -0.306 ± 0.5.
Take IMTMTGNVDNIAVIRRS: the amyloid nucleation score is -0.519 ± 1.
The value for EFFALMDARVFVSVMLQEVD was -0.268 ± 0.63; that for SMSCTTSASYHYLIS was 0.697 ± 0.47; that for SAKNMFDMYNCLDTLVVSWD was -0.095 ± 0.46.
The value for FATKRERNVWFMSIEWFVRG was -0.707 ± 0.44; that for GASRVAPVCQTTKSLKCMAK was -1.17 ± 1.1; that for CEVLKHSCTDSEMHAKADGV was -0.307 ± 0.23.
The result for NYGSTLVDWRVRFTRTRTWS reads 0.503 ± 0.3.
In turn, ALFTLRVMLTTYYWQGMAEF showed an amyloid nucleation score of 0.296 ± 0.31.
The result for MRYSPWQGTHILWVLNTTSY reads 1.82 ± 0.32; that for VLVDTSDRWLMARWLGVPKP, 4.79 ± 0.084; that for MQIKFKS, -0.38 ± 0.56.
The result for LAPLNSWKTY reads -0.045 ± 0.56.
The value for AMYEH was 0.518 ± 0.46; that for ILVSFYRDSS was 0.416 ± 0.44; that for ATDADGRLISY was 1.31 ± 0.25.
Substance GAHNMREGAAPGRKRVVLAM returned an amyloid nucleation score of 1.22 ± 0.35.
The result for SMRSIREEAVFVLIVVLRGR reads 0.261 ± 0.43; that for SFKLGSHVSDKKIGMDLCFT, -0.361 ± 0.4.
For SYTWFSYIWYSLVFLRD, the amyloid nucleation score was -0.088 ± 0.8.
For the substance IYDLSCAKARLYVASHSLTL, the amyloid nucleation score worked out at 0.418 ± 0.31.
The value for WVNSCVPGLARPNSLFFNRS was -0.491 ± 0.56.
The value for NCHFTCMPAACGETVKTY was 0.597 ± 0.45.
The result for VILNYSRY reads 4.5 ± 0.078; that for LVHSLDFL, -0.389 ± 0.61.
YGLLHQFRSCKRI showed an amyloid nucleation score of -0.682 ± 0.29.
The value for VLRRIVMMLSIS was -0.069 ± 0.32; that for LVEFSSRFQLGFTGSVNS was 1.21 ± 0.16; that for GLIMVSSVLCTFAGMGDNWA was 5.84 ± 0.091.
The value for GTLGFDLKR was -0.507 ± 0.76; that for LGPGLDLSIINYEWIIF was -0.202 ± 0.79; that for MLYYNESVINAVVYVKGRCW was -0.012 ± 1.1.
The result for LFNSAVLK reads -0.092 ± 0.33; that for VGNIGPT, 0.338 ± 0.46.
Turning to FLIINYRSCRGINFIYARFY, the amyloid nucleation score result was “inactive”.
The value for VCYIPYMLRSHLNALTFLSV was -0.492 ± 0.76.
The value for FTLLVYIFLYMMLIGNSFFM was “inactive”.
The value for NFSIL was -0.184 ± 1.1.
Take NTMMGV: the amyloid nucleation score is -0.724 ± 0.64.
The result for MNSSQGTDAKRMLYHRCSET reads -0.29 ± 0.56; that for CFSRMRRTEW, -0.142 ± 0.23; that for ESGFGMSSNWKPERNFW, “inactive”.
The result for TCLMVVE reads 0.539 ± 0.66.
The result for LPKREPGDKGTLLYYDQELS reads 0.167 ± 0.53; that for ILRTDMMINMDLLFGNVGNL, 3.38 ± 0.089; that for SHVTGR, 0.602 ± 0.34.
Regarding VLVTRIEWMGESTCMSLVNY, the amyloid nucleation score turned out to be 2.69 ± 0.12.
RTSTYLCMAVNKGVFVSNSV yielded an amyloid nucleation score of -0.576 ± 0.64.
The result for ILMRSYDFALGPNQCIIRAK reads 4.95 ± 0.074.
The value for TYHCN was 0.765 ± 0.43.
The value for TFCSPR was 0.49 ± 0.5.
Consider RDMWKVNHGNTACIGSYRSV, for which the amyloid nucleation score turned out to be 0.671 ± 0.35.
The result for VCNSLCDSYF reads -1.28 ± 0.56; that for DCSNDRKIYYNWAIRVVRTD, 0.076 ± 0.35.
The value for GFRDMGDHIDVREKFSWADA was “inactive”; that for IVRVSMGYGIIPLICSKTEG was 0.859 ± 0.74.
The result for WSGLNSNRSVDNPSISTGWS reads -0.532 ± 0.56; that for IFRIWRTRGRRSRFVSIEIG, -0.802 ± 0.41; that for MLECVSALGKLGWFIQPVCL, -0.32 ± 0.55.
Regarding MSRKWGGSKRCNGCPPKLVQ, the amyloid nucleation score was 1.08 ± 0.22.
